Source: patent publication US8460664 (ACADEMIA SINICA, dated 2013)

Assays:
[1] = molecular target: mIgE.FcL on transfected Ramos cells (human, UniProt P01854 104-546, limits assumed); experiment: cell-based or functional assay
[2] = molecular target: T1, P1 peptide (human); experiment: ELISA, 1 µg/ml antibody on coated peptide (500 ng/well)
T1 construct: Synthetic peptide
T1 peptide: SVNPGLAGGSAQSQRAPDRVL
Description: (§1) To explore the specificity of anti-CεmX mAbs to CεmX, the various CεmX-specific clones were then tested for reactivity with 3 synthetic peptides, representing 3 consecutive segments of CεmX, divided by a C residue located at residue #18 and a CHC segment at residues #39-41. Specifically, P1 peptide contains the last 4 amino acid residues of CH4 of Mε and first 17 amino acid residues (#1-17), namely, […] (SEQ ID NO:2), of CεmX; P2 peptide contains 20 amino acid residues #19-38, namely, […] (SEQ ID NO:3), of CεmX; P3 peptide contains the terminal 11 amino acid residues (#42-52), namely, […]_(SEQ ID NO:4), of CεmX and first 4 amino acid residues of the consecutive migis region, namely, the N-terminal extracellular region of the membrane anchor peptide of Mε chain. All peptides were synthesized at Genomics Research Center, Academia Sinica (Taipei, Taiwan). The peptides were reconstituted with PBS at a concentration of 10 mg/ml. All peptides were coated on 96-well MaxiSorp plates at 500 ng/well in 0.1M NaCO_3 (pH 9.6) at 4° C. overnight. Coated wells were blocked by 200 μl/well of 1% BSA in PBS at room temperature for 1 hour. Plates were washed three times with 200 μl/well of PBS with 0.05% Tween-20, followed by adding 100 μl of 1 μg/ml anti-CεmX mAbs to wells.

[3] = molecular target: T2, P3 peptide (human); experiment: ELISA on coated peptide (500 ng/well)
T2 peptide: GAGRADWPGPPELDV
Description: as §1

[4] = molecular target: T3, mIgE.FcS on transfected CHO cells (human, UniProt P01854-3 104-494, limits assumed); experiment: flow cytometry, hybridoma supernatants
T3 construct: domain: CH2 domain through the cytoplasmic end of mεS (CH2-CM), on cells; Lacks the CεmX domain; No coreceptors are present in CHO cells; also called CHO cells expressing mIgE.FcS; mεS(CH2-CM)
T3 sequence (P01854 other isoform, or with tags, fused parts or gaps limits assumed): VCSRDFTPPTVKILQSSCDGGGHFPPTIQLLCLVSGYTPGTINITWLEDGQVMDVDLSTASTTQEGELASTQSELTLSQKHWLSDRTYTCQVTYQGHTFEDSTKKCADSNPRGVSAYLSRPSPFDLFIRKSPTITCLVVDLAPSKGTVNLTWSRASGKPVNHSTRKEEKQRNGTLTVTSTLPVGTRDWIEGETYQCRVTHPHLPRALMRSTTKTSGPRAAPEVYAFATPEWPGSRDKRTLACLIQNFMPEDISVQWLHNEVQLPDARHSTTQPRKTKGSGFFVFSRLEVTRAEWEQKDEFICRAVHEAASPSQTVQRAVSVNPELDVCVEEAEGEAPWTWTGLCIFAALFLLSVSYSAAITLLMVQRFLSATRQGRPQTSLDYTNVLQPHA
Description: (§2) We further tested the ability of various CεmX-specific monoclonal antibodies to bind to CHO and Ramos cell lines that were transfected with either recombinant DNA encoding mε_{L(CH2-CM)} or mε_{S(CH2-CM)}. […] The transfected two Ramos cell lines respectively produced mIgE.Fc_L or mIgE.Fc_S, both of which form complexes with their native coreceptors. To investigate the binding of anti-CεmX mAbs to native CεmX, CHO or Ramos cells expressing mIgE.Fc_L or mIgE.Fc_S were resuspended in FACS buffer [PBS, 1% FBS, 0.1% sodium azide, and 2 mM EDTA (pH 8.0)] at a cell density of 10^7 cells/ml. 10^6 cells were then incubated for 30 min on ice with 100 μl of hybridoma supernatants, followed by washing with FACS buffer. Bound antibodies were detected by incubation for 30 minutes on ice with FITC-labeled rabbit F(ab')_2 fragment specific for mouse IgG (AbD Secrotec), followed by washing twice with FACS buffer prior to analysis. Flow cytometry experiments were performed using a FACSCanto II flow cytometer (BD Bioscience) and analyzed using FCSExpress software (De Novo Software).

[5] = molecular target: T4, mIgE.FcS on transfected Ramos cells (human, UniProt P01854-3 104-494, limits assumed); experiment: flow cytometry, hybridoma supernatants
T4 construct: domain: CH2 domain through the cytoplasmic end of mεS (CH2-CM), on cells; Lacks the CεmX domain; It forms complexes with the native coreceptors of Ramos cells; also called Ramos cells expressing mIgE.FcS; mεS(CH2-CM)
T4 sequence (P01854 other isoform, or with tags, fused parts or gaps limits assumed): as above
Description: as §2

mIgE.FcL on transfected Ramos cells, sequence (P01854 104-546 limits assumed): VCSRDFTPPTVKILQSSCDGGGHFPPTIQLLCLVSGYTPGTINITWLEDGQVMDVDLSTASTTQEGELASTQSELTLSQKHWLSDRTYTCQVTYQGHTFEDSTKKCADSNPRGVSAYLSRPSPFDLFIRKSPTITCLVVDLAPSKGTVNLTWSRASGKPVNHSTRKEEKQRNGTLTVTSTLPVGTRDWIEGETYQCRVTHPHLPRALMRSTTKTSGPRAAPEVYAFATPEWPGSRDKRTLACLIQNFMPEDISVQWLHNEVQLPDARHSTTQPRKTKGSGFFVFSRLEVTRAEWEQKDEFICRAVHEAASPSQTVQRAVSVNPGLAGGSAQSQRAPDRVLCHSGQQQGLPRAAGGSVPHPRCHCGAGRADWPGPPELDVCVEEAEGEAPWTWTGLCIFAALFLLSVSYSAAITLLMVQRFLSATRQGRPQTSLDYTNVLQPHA

B1: chimeric 4B12 (antibody, V domains shown)
VH: DVQLQESGPGLVKPSQSLSLTCTVTGYSITSDYAWNWIRQFPGNKLEWMGSISYSGITGYNPSLKSRISVTRDTSKNQFFLQLNSVTTEDTATYYCARMGYDGLAYWGHGTTVTVSA
VL: DVLMTQTPLSLPVSLGDQASISCRSSQSIVHSNGNTYLEWYLQKPGQSPKLLIYKVSNRFSGVPDRFSGSGSGTDFTFKISRVEAEDLGVYYCFQGSHVPPTFGGGTKLEIKR
[1]
  ADCC, specific lysis at an E/T ratio of 50 (antibody 1 µg/ml, PBMC effectors): ≤ 60%

B2: mouse monoclonal antibody 4B12 (antibody, V domains shown)
VH: B1 VH
VL: B1 VL
notes: Mouse hybridoma IgG, detected with anti-mouse IgG; also called parental mouse 4B12
[2]
  binding result: binds
[3]
  binding result: no binding (tested: 1 µg/ml)
[4]
  binding result: no binding
[5]
  binding result: no binding
